Source: the supplement of paper PMC9112550, “Optimization of the antimicrobial peptide Bac7 by deep mutational scanning” (BMC Biology, 2022)

Test system: Escherichia coli TOP10
Assay: shrunken log2 fold change of peptide-encoding DNA abundance (4.5 h post-induction vs induction); higher = less antimicrobial activity (less host growth inhibition)
Settings: time post-induction: 4.5 h; library: site-saturation at positions 5, 18, 19, 20
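Note: peptides expressed intracellularly from a pBAD plasmid library in pooled LB shake-flask culture, induced with 0.3% L-arabinose, DNA abundance read by NGS, three biological replicates, DESeq2 with apeglm shrinkage.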

Row | Sequence | shrunken log2 fold change
1 | RRIRRRPPRLPRPRPRPKYHPRP | -0.153
2 | RRIRRRPPRLPRPRPRPLATPRP | 0.882
3 | RRIRRRPPRLPRPRPRPLCQPRP | -0.00285
4 | RRIRRRPPRLPRPRPRPLEDPRP | -0.0161
5 | RRIRRRPPRLPRPRPRPLEIPRP | 0.0856
6 | RRIRRRPPRLPRPRPRPLEVPRP | 0.197
7 | RRIRRRPPRLPRPRPRPLHSPRP | 0.357
8 | RRIRRRPPRLPRPRPRPLHVPRP | -0.125
9 | RRIRRRPPRLPRPRPRPLIYPRP | 0.431
10 | RRIRRRPPRLPRPRPRPLKCPRP | 0.0734
11 | RRIRRRPPRLPRPRPRPLKLPRP | -0.0808
12 | RRIRRRPPRLPRPRPRPLNDPRP | 0.0468
13 | RRIRRRPPRLPRPRPRPLRWPRP | 0.732
14 | RRIRRRPPRLPRPRPRPLSSPRP | 0.234
15 | RRIRRRPPRLPRPRPRPLWLPRP | -0.107
16 | RRIRRRPPRLPRPRPRPLYQPRP | -0.315
17 | RRIRRRPPRLPRPRPRPMAQPRP | 0.318
18 | RRIRRRPPRLPRPRPRPMAWPRP | 0.0237
19 | RRIRRRPPRLPRPRPRPMCYPRP | -0.069
20 | RRIRRRPPRLPRPRPRPMEEPRP | 0.0408
21 | RRIRRRPPRLPRPRPRPMFRPRP | -0.0342
22 | RRIRRRPPRLPRPRPRPMFTPRP | 0.0616
23 | RRIRRRPPRLPRPRPRPMGSPRP | -0.0322
24 | RRIRRRPPRLPRPRPRPMIHPRP | -0.0319
25 | RRIRRRPPRLPRPRPRPMKHPRP | -0.191

Row | Sequence | shrunken log2 fold change
26 | RRIRRRPPRLPRPRPRPMKPPRP | 0.0733
27 | RRIRRRPPRLPRPRPRPMKRPRP | 0.0474
28 | RRIRRRPPRLPRPRPRPMLAPRP | 0.983
29 | RRIRRRPPRLPRPRPRPMLDPRP | 0.116
30 | RRIRRRPPRLPRPRPRPMLIPRP | -0.0813
31 | RRIRRRPPRLPRPRPRPMLLPRP | -0.0984
32 | RRIRRRPPRLPRPRPRPMMCPRP | 0.102
33 | RRIRRRPPRLPRPRPRPMMLPRP | -0.142
34 | RRIRRRPPRLPRPRPRPMNMPRP | 0.922
35 | RRIRRRPPRLPRPRPRPMPSPRP | 0.136
36 | RRIRRRPPRLPRPRPRPMQRPRP | 0.24
37 | RRIRRRPPRLPRPRPRPMRIPRP | 0.0269
38 | RRIRRRPPRLPRPRPRPMRWPRP | 0.638
39 | RRIRRRPPRLPRPRPRPMSPPRP | -0.185
40 | RRIRRRPPRLPRPRPRPMSSPRP | -0.00615
41 | RRIRRRPPRLPRPRPRPMVLPRP | -0.0254
42 | RRIRRRPPRLPRPRPRPMVMPRP | 0.158
43 | RRIRRRPPRLPRPRPRPMVSPRP | 0.0678
44 | RRIRRRPPRLPRPRPRPMWVPRP | -0.135
45 | RRIRRRPPRLPRPRPRPMYLPRP | -0.0501
46 | RRIRRRPPRLPRPRPRPNAMPRP | 0.258
47 | RRIRRRPPRLPRPRPRPNAWPRP | 0.597
48 | RRIRRRPPRLPRPRPRPNDPPRP | 0.0958
49 | RRIRRRPPRLPRPRPRPNDVPRP | -0.0736
50 | RRIRRRPPRLPRPRPRPNHPPRP | -0.0297

Row | Sequence | shrunken log2 fold change
51 | RRIRRRPPRLPRPRPRPNIGPRP | -0.89
52 | RRIRRRPPRLPRPRPRPNIQPRP | 0.0304
53 | RRIRRRPPRLPRPRPRPNKEPRP | -0.0865
54 | RRIRRRPPRLPRPRPRPNKQPRP | -0.00565
55 | RRIRRRPPRLPRPRPRPNLMPRP | 0.85
56 | RRIRRRPPRLPRPRPRPNMIPRP | -0.914
57 | RRIRRRPPRLPRPRPRPNNLPRP | -0.293
58 | RRIRRRPPRLPRPRPRPNPAPRP | 0.643
59 | RRIRRRPPRLPRPRPRPNPHPRP | 0.534
60 | RRIRRRPPRLPRPRPRPNSYPRP | -0.116
61 | RRIRRRPPRLPRPRPRPNTSPRP | -0.116
62 | RRIRRRPPRLPRPRPRPNVGPRP | 0.0319
63 | RRIRRRPPRLPRPRPRPNWMPRP | 0.0739
64 | RRIRRRPPRLPRPRPRPPAIPRP | 1.03
65 | RRIRRRPPRLPRPRPRPPCFPRP | 0.741
66 | RRIRRRPPRLPRPRPRPPCGPRP | 0.324
67 | RRIRRRPPRLPRPRPRPPDNPRP | 0.548
68 | RRIRRRPPRLPRPRPRPPEQPRP | 0.033
69 | RRIRRRPPRLPRPRPRPPGCPRP | 0.417
70 | RRIRRRPPRLPRPRPRPPGRPRP | 1.52
71 | RRIRRRPPRLPRPRPRPPHTPRP | 0.879
72 | RRIRRRPPRLPRPRPRPPINPRP | 0.0262
73 | RRIRRRPPRLPRPRPRPPLCPRP | 0.971
74 | RRIRRRPPRLPRPRPRPPMEPRP | -0.0681
75 | RRIRRRPPRLPRPRPRPPMHPRP | 0.693
